B1: Endolysin, P03706 (parent)
chain: MVEINNQRKAFLDMLAWSEGTDNGRQKTRNHGYDVIVGGELFTDYSDHPRKLVTLNPKLKSTGAGRYQLLSRWWDAYRKQLGLKDFSPKSQDAVALQQIKERGALPMIDRGDIRQAIDRCSNIWASLPGAGYGQFEHKADSLIAKFKEAGGTVREIDV

The variants in the series derive from B1. To be noted: Escherichia phage lambda, pH 7, Thermal, Fluorescence, phosphate buffer 100 mM, reversible: yes, structure 1AM7, whole UniProt chain shown; for ddG of mutation (higher = less stable) / unfolding free energy: 25 °C.

On to MVEINNQRKAFLDMLAWSEGTDNGRQKTRNHGYDVIVGGELFTDYSDNPRKLVTLNPKLKSTGAGRYQLLSRWWDAYRKQLGLKDFSPKSQDAVALQQIKERGALPMIDRGDIRQAIDRCSNIWASLPGAGYGQFEHKADSLIAKFKEAGGTVREIDV [H48N], for which the “ddG of mutation (higher = less stable)” value was 5 kcal/mol; the unfolding free energy is 2.1 kcal/mol; the Tm was determined as 30.1 °C; the “change of melting temperature, mutant - wild type (higher = more stable)” value was -22.2 °C. For the same variant, the “unfolding enthalpy (van 't Hoff)” value was found to be 60.8 kcal/mol.
The matching figures for MVEINNQRKAFLDMLAWSEGTDNGRQKTRNDGYDVIVGGELFTDYSDHPRKLVTLNPKLKSTGAGRYQLLSRWWDAYRKQLGLKDFSPKSQDAVALQQIKERGALPMIDRGDIRQAIDRCSNIWASLPGAGYGQFEHKADSLIAKFKEAGGTVREIDV [H31D]: 1.6 kcal/mol, 5.5 kcal/mol, 46.1 °C, -6.2 °C and 99.8 kcal/mol.
Consider MVEINNQRKAFLDMLAWSEGTDNGRQKTRNNGYDVIVGGELFTDYSDHPRKLVTLNPKLKSTGAGRYQLLSRWWDAYRKQLGLKDFSPKSQDAVALQQIKERGALPMIDRGDIRQAIDRCSNIWASLPGAGYGQFENKADSLIAKFKEAGGTVREIDV [H31N H137N], for which the “ddG of mutation (higher = less stable)” value is -1.8 kcal/mol and the unfolding free energy stood at 8.9 kcal/mol.

These data come from FireProtDB (doi:10.1016/s0014-5793(99)01395-2).
